Results reported in patent publication US20160311918A1, “Anti-Ron Monoclonal Antibodies as a Cytotoxic Drug Delivery System for Targeted Cancer Therapy” (TEXAS TECH UNIVERSITY SYSTEM, priority 2013, published 2016).

Tests used:
[1] = tested on: transformed NIH-3T3 cells expressing oncogenic RON160; experiment: Tumor growth by NIH-3T3 cells expressing RON160 in Balb/c mice; type: in vivo, mouse; conditions: repeated administration, single agent
From the text: (§1) This sequence is critical in regulating RON maturation and phosphorylation. […] These biochemical features provide the cellular basis for the use of Zt/f2 to inhibit tumor growth in animal model. Repeated administration of Zt/f2 as a single agent into Balb/c mice results in partial inhibition of tumor growth caused by transformed NIH-3T3 cells expressing oncogenic RON160. Colon cancer HT-29 cell-mediated tumor growth in athymic nude mice also was attenuated following Zt/f2 treatment. In both cases, ˜50% inhibition of tumor growth as measured by tumor volume was achieved. […] The present inventors conclude that Zt/f2 is a potential therapeutic mAb capable of inhibiting RON-mediated oncogenesis by colon cancer cells in animal models. The inhibitory effect of Zt/f2 in vivo in combination with chemoagent 5-fluorouracil could represent a novel strategy for future colon cancer therapy.

[2] = tested on: human RON and its oncogenic variants such as RON160; experiment: Zt/f2 receptor binding to human RON
From the text: as §1

[3] = tested on: Colon cancer HT-29 cell-mediated tumor growth; experiment: HT-29 cell-mediated tumor growth in athymic nude mice (Zt/f2); type: in vivo, mouse
From the text: as §1

RON = RON (Homo sapiens, UniProt Q04912); experiment: Classification of anti-RON mAbs by activity upon binding to RON; type: cell-based
From the text: Using an advanced living cell immunization method, the present inventors were able to generate mAbs specific only to the RON extracellular domains. Using flow cytometer in conjunction with biological assays, the present inventors characterize our anti-RON mAbs for their specificity and sensitivity. […] This is based on direct binding, ELISA, IHC, Western blotting and other biochemical and biological assays. Moreover, based on their activities upon binding to RON, the present inventors were able to classify the anti-RON mAb into three categories. […] This type of anti-RON mAbs is considered as agnostic antibodies. The representatives are Zt/g4, Zt/c1, Zt/c9, Zt/f1, and Zt/H12. […] The typical examples are Zt/g9 and Zt/c8. […] One example is Zt/f2. The present inventors considered this type of mAb having therapeutic potentials.

RON, sequence (Q04912 25-1400): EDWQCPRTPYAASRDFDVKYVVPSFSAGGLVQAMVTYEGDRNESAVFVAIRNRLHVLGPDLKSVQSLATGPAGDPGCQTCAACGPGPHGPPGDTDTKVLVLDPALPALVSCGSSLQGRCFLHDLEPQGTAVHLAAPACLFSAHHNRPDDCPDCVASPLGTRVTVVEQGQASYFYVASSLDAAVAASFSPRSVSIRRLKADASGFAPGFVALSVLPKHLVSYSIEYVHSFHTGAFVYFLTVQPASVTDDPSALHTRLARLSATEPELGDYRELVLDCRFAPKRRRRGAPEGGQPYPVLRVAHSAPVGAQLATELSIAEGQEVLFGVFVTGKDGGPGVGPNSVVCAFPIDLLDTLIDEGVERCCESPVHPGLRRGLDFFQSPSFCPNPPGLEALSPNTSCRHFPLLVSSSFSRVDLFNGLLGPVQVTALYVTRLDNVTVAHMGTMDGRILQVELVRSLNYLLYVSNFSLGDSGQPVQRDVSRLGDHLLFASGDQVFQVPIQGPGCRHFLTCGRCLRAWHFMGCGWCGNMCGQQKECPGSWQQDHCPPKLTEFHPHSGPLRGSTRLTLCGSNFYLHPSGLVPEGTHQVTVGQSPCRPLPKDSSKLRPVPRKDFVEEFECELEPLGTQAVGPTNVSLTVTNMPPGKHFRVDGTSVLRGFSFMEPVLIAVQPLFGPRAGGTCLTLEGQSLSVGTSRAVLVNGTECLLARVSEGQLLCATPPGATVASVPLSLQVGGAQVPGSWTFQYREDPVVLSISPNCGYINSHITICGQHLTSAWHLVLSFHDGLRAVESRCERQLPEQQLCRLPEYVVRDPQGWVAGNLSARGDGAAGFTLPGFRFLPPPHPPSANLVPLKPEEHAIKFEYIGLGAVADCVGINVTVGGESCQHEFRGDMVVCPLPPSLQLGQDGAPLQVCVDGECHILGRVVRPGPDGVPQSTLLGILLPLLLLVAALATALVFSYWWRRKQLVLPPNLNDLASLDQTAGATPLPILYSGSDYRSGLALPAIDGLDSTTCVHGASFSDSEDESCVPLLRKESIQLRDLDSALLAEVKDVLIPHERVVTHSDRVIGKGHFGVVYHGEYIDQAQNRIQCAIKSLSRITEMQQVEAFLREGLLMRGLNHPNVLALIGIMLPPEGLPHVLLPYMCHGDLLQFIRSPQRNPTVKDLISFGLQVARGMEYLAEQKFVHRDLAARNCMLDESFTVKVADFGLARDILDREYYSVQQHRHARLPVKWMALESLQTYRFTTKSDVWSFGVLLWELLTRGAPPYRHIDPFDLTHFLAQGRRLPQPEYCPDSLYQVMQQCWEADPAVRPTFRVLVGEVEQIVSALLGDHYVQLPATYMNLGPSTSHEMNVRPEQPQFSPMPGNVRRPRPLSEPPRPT

B1: Zt/f2: mouse IgG2a mAb specific to human RON and its oncogenic variants such as RON160 (antibody, V domains shown)
VH: QVQLQQSGAELAKPGASVKMSCKASGYTFTSYWMHWVKQRPGQGLEWIGYINPSTGYIEYNQNFKDKATLTADKSSSTAYMQLSSLTSEDSAVYYCARSPSHYYGSRYGYFDVWGAGTTVTVSS
VL: QIVLSQSPAILSASPGEKVTMTCRASSSVSYMHWYQQKPGSSPKPWIYATSNLASGVPARFSGSGSGTSYSLTISRVEAEDAATYYCQQWSSNPRTFGGGTKLEIK
In the case of B1, the “inhibition of tumor growth as measured by tumor volume” value [1] is reported as about 50%, the “competition with ligand macrophage-stimulating protein for binding to RON” value [2] is reported as “did not compete” and the “inhibition effect on HT-29 cell-mediated tumor growth” value ([3]; in combination with 5-fluorouracil) is reported as about 80%. For the same molecule, the “inhibition of tumor growth as measured by tumor volume” value ([3]; single agent, athymic nude mice) was about 50% and the “activity upon binding to RON” value (RON) was “inhibit RON activation and signaling”.
